These results are taken from paper PMC7714071, “Interaction of amyloid beta with humanin and acetylcholinesterase is modulated by ATP” (FEBS Open Bio, 2020).

Experiment [1] has as its target Aβ from A549 cell‐conditioned media (human (endogenous in A549)). Kind of experiment: ELISA; antibody (6E10 or 82E1 against Aβ, or anti‐HN, or anti‐AChE) bound to the wells; 300 μL conditioned medium (0.5 μg·μL^−1) added without or with ATP (100 μM, 1 mM); the partner held with the captured protein detected by its primary antibody. For orientation: In an ELISA, binding on a coated surface is turned into a signal by an enzyme label.

For experiment [2] the target is unchanged. The experiment is described as follows: ELISA; single‐site ELISA for oligomerized Aβ (capture 4G8, detection 4G8‐biotin) against two‐site ELISA for total Aβ (capture 6E10, detection 4G8‐biotin); conditioned media, control or immunodepleted of HN or AChE, without or with ATP.
Experiment [3] deals with Aβ from H1299 cell‐conditioned media (human (endogenous in H1299)). Described as above.

Sequence of AChE from A549 cell‐conditioned media (P22303 32-614): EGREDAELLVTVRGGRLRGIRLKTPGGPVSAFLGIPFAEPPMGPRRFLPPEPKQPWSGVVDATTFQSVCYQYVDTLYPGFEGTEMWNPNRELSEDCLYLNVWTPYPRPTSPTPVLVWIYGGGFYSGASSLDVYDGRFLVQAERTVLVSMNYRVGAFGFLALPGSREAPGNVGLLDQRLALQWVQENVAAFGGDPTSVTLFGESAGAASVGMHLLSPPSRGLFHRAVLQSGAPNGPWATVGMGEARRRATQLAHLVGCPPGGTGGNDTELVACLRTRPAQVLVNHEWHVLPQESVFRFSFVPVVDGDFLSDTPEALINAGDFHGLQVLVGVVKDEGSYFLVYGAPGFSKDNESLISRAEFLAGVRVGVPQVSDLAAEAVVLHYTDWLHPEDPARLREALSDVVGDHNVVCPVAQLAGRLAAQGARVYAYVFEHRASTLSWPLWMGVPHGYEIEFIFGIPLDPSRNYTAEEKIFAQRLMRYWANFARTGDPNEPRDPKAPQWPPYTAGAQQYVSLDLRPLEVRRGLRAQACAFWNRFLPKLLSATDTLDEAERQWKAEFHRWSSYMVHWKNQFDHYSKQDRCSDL

Turning to “AChE from A549 cell‐conditioned media (from UniProt P22303 32-614) (enzyme)”, in experiment [1], the fold decrease in AChE in a complex with Aβ with 100 μM ATP, relative to samples without added ATP is 2.3 fold.
In the case of “Aβ from A549 cell‐conditioned media (peptide)”, in experiment [2], the percent oligomer of the total Aβ that remained after immunodepletion of AChE is 47%, the percent oligomer of the total Aβ that remained after immunodepletion of HN amounted to 86% and the percent oligomer of total Aβ is 63%.
“Aβ from H1299 cell‐conditioned media (peptide)”: in experiment [3], the percent oligomer of the total Aβ that remained after immunodepletion of HN amounted to 69% and the percent oligomer of total Aβ came out at 48%.
In experiment [1], “HN from A549 cell‐conditioned media (peptide)” had a fold increase in HN bound to Aβ with 100 μM ATP, relative to samples without added ATP of 1.85 fold and a fold increase in HN bound to Aβ with 1 mM ATP, relative to samples without added ATP of 2.5 fold.
